# Results reported in the DeepSol protein solubility set.
# Assay: soluble on expression in E. coli; label from the status in PepcDB or PDB records
row,Sequence,soluble on expression in E. coli
1,MGHHHHHHSHQADEGQARKSQLQRRFKEFLRQYRVGTDRTGFTFKYRDELKRHYNLGEYWIEVEMEDLASFDEDLADYLYKQPAEHLQLLEEAAKEVADEVTRPRPSGEEVLQDIQVMLKSDASPSSIRSLKSDMMSHLVKIPGIIIAASAVRAKATRISIQCRSCRNTLTNIAMRPGLEGYALPRKCNTDQAGRPKCPLDPYFIMPDKCKCVDFQTLKLQELPDAVPHGEMPRHMQLYCDRYLCDKVVPGNRVTIMGIYSIKKFGLTTSRGRDRVGVGIRSSYIRVLGIQVDTDGSGR,not soluble
2,MSLTNFVCHTLYHLLITIIKLKDKENTRIFICDTITDYETWVKILNDQGIRTESFKEFAYREQLQNKNIEEVMELVDSDLNHYFERVDTQVYLFNDDTLIGRYMVYLGKNYHLIEDGYNCFQAKLFLGGSVVKRVIKTYLFKKYVPYGFSKYCLSIEVNSLVGLPHDIRSKKYKELPRKKLFDSLNKEQKSLIFKIFKTKPLTITPKSVLLLTQPLAQDKWYKTPTERFQSIQEQYDYFDDIVQEYRTLGYNVYLKVHPRDVVDYSKLPVELLPSNVPMEIIELMSTGRFECGITHSSTALDSLTCVDKKITLVDLKDIKEGHHHHHH,not soluble
3,NNNLTWNIYANMTWNKNKIIKLSTDEPIEYTYQIIEEGRPYRQFYMKEYAGVDRENGKPLWYLNEEGNETTSDYNAAAKRYVGDADPKVLGGFGTNLSWKGFDFNMNFTYRLGGKVFDSGASFTGFGMANRTPLKDVALNSWTEENKDAKYPQYIYGDPNKATQTSSRFLYSSNFLRISNMTLGYTVPVNLTKKIFIQKLRAYISIDNLYTFTSNDFVGYNPETYSNGVIAWQYPATRTFIGGIQLSF,not soluble
4,MGSDKIHHHHHHMVKRMKLPESKNLSLYWEKYSFLLLEGSNSKDKEIVSKIFQTVEKLQSDFGKISSILKERREQLIKKRKPFINLKMRVKGKLLLGAGNPSSIEVGITLSRNYGLPIIPGTAVKGAFASFLFEFERDKYESLAHIFGDTEREGDLIFLDAIPVSDLKFSLDIVNPHFQPYYMKEKLPPNDWYDPVPIKYLVVSSGVFWFTVLESRSGVIGNSEKELIKQRFVEMLKAYGLGAKTSYGYGRFEEPS,not soluble
5,MKEKSSVEVRLDKWLWAARFYKTRAMAREMIEGGKVHYNGQRSKPSKIVELNATLTLRQGNDERTVIVKAITEQRRPASEAVALYEETAESVEKREKMAQARKLNALTMPHPDRRPDKKERRDLLRFKHGDSE,not soluble
6,GHMPNIPPPFTAPYAPDDAEIAARLLPASHLSPPQEARIHRTATRLIEAIRKRDDRLGGVEDMLREFALSTKEGLALMVLAEALLRVPDARTADQFIEDKLGEGDFIHHETKSTAFLVNASAWALGLSARVIQPGETPDGTIGRLVKRLGAPAVRTATRQAMRLMGNHFVLGETIEQALERGKPRSGQKTRYSFDMLGEGARTAADARRYFDAYASAIETIGKAAGNHALPDRPGISVKLSALHPRFEAISRARVMVELVPQLLDLAQRAKAHDLNFTVDAEEADRLELSLDVIAATLADPSLKGWDGFGLAIQAYQKRASAVIDYVDALARAHDRKLMVRLVKGAYWDTEIKRAQERGLDGYPVFTRKAMTDLNYVACASKLLALRPRIFPQFATHNALTVATVLEMAEGSSGFEFQRLHGMGEALYEQLAKDHADIAYRTYAPVGSHRDLLAYLVRRLLENGANSSFVAQAADYRVPVPALLQRPADAIVRPQAAAHPRIPLPCDLFAPERRNSRGVEFGARTALDQLLTDVKAETGDLKPIADATPDQAHAAVAAARAGFAGWSRTPAGIRAAALEQAAHLLESRSAHFIALLQREGGKTLDDALSELREAADFCRYYAAQGRKLFGSETAMPGPTGESNALTMRGRGVFVAISPWNFPLAIFLGQVTAALMAGNSVVAKPAEQTPRIAREAVALLHEAGIPKSALYLVTGDGRIGAALTAHPDIAGVVFTGSTEVARSINRALAAKDGPIVPLIAETGGINAMIADATALPEQVADDVVTSAFRSAGQRCSALRLLFVQEDVADRMIEMVAGAARELKIGDPSDVATHVGPVIDVEAKQRLDAHIARMKTEARLHFAGPAPEGCFVAPHIFELTEAGQLTEEVFGPILHVVRYRPENLERVLRAIERTGYGLTLGVHSRIDDSIEAIIDRVQVGNIYVNRNMIGAVVGVQPFGGNGLSGTGPKAGGPHYLARFATEQTVTINTAAAGGNAALLAGEE,soluble
7,SASVRIREAKEGDCGDILRLIRELAEFEKLSDQVKISEEALRADGFGDNPFYHCLVAEILPAPGKLLGPCVVGYGIYYFIYSTWKGRTIYLEDIYVMPEYRGQGIGSKIIKKVAEVALDKGCSQFRLAVLDWNQRAMDLYKALGAQDLTEAEGWHFFCFQGEATRKLAGK,soluble
8,VAKATNAPLSVSKIDFKRGDDGSGRLILKFDGQGATPDLRTQGGTVLVDLGTAVLPTVLQRQINVVDFATPVQRIDAKPMGKGAQLVLSTKGAFESLAYQTGDEYVVEIVPRKGEAAM,not soluble
9,MGSDKIHHHHHHMWTGFFSKSGTGIAEERHQNRRACTDVPLLAERNSKHPDRPYGFAKYRQSGLDIYAWHGIYFFPRFPFIDIDCIRWVCAGLKAFKHYIRENGLPDLIHAHRMNYAGILAQKISQKYGIPYVVTEHSSTITRGLIRPHQWQPMEKAAAHASALLAVSRHFAHVLQHKYGCEWQYLPPTYWAEYSTDRLNKEKKTTNRISCSAPSRTFAVSKDTMSYSLPLPGRWHNARNCA,not soluble
10,MAVRVCCHAPPGVSNHLFTFCAGNLTTGFSGGSVTSQKGGAAGLPTCSRRCPRGCLPGSDPLPRHPRRYAPPVTPPVTPPTTPAPRSRARMLELVFPKDTNYHGTAFGGWVLALMDKAASVAAVRHAGGNVVTARMDGVDFHVPIRVGDAVALDARVIRVGRSSMTIRVDVYRENMASGEQQLATGGLFTFVALGEDGKPRPVPPLPEGSTDSEQPDYEARPLEHHHHHH,not soluble
11,MATATPVPPRMGSRAGGPTTPLSPTRLSRLQEKEELRELNDRLAVYIDKVRSLETENSALQLQVTEREEVRGRELTGLKALYETELADARRALDDTARERAKLQIELGKCKAEHDQLLLNYAKKESDLNGAQIKLREYEAALNSKDAALATALGDKKSLEGDLEDLKDQIAQLEASLAAAKKQLADETLLKVDLENRCQSLTEDLEFRKSMYEEEINETRRKHETRLVEVDSGRQIEYEYKLAQALHEMREQHDAQVRLYKEELEQTYHAKLENARLSSEMNTSTVNSAREELMESRMRIESLSSQLSNLQKESRACLERIQELEDLLAKEKDNSRRMLTDKEREMAEIRDQMQQQLNDYEQLLDVKLALDMEISAYRKLLQGEEERLKLSPSPSSRVTVSRASSSRSVRTTRGKRKRVDVEESEASSSVSISHSASATGNVCIEEIDVDGKFIRLKNTSEQDQPMGGWEMIRKIGDTSVSYKYTSRYVLKAGQTVTIWAANAGVTASPPTDLIWKNQNSWGTGEDVKVILKNSQGEEVAQRSTVFKTTIPEEEEEEEEAAGVVVEEELFHQQGTPRASNRSCAIM,soluble
12,MIMLIKKLLETTAAAEEKARQLAEMETDEAWAVYLAEAERQRKLWQYVHYLVAGANADGRAEREQSKAGAPRCDLLQAMAAAEWEKAMLCQNVCQSLNGAAKQAVDAVFRQALRYSGQFLAMAYDERARQTAD,not soluble
13,MWRCIVVISSDRRPEMPFKPLVTAGIESLLNTFLYRSPALKTARSRLLGKVLRVEVKGFSTSLILVFSERQVDVLGEWAGDADCTVIAYASVLPKLRDRQQLAALIRSGELEVQGDIQVVQNFVALADLAEFDPAELLAPYTGDIAAEGISKALRGGAKFLHHGIKRQQCYVAEAITEEWRMAPGPLEVAWFAEETAAVERAVDALTKRLEKLEAK,not soluble
14,GIDPFTNEAASAAGVVGGMVDSITQAINQLDEGPMGDPEGSFVDYQTTMVRTAKAIAVTVQEMVTKSNTSPEELGPLANQLTSDYGRLASQAKPAAVAAENEEIGAHIKHRVQELGHGCSALVTKAGALQCSPSDVYTKKELIECARRVSEKVSHVLAALQAGNR,soluble
15,MLQISHLYADYGGKPALEDINLTLESGELLVVLGPSGCGKTTLLNLIAGFVPYQHGSIQLAGKRIEGPGAERGVVFQNEGLLPWRNVQDNVAFGLQLAGIEKMQRLEIAHQMLKKVGLEGAEKRYIWQLSGGQRQRVGIARALAANPQLLLLDEPFGALDAFTRDQMQTLLLKLWQETGKQVLLITHDIEEAVFMATELVLLSSGPGRVLERLPLNFARRFVAGESSRSIKSDPQFIAMREYVLSRVFEQREAFS,soluble
16,MPVILNFSSERVLSESELEALRHVGRVSQSEQLVVRGRTMRLHHISFMDSFSVEPVSGGLLDRLSARGHRLLAENLEIQLNRGHTFLQAFRLYMEQSRATPCTRQNVSSAIQNKINSHAFTVSHQDFSCHEQHLNCPITLCIPETGVFVRNAKNSEICSLYDHNALTELIRRNAPHPLSREPFVPEMIVSKDECHFNLIEQYFCILATQNICTRI,not soluble
17,MGSDKIHHHHHHMTFGLLHRWLTDMGMTISKNTLRNWLTKDKTYLDELVCVLKSIALEKDSIVNCDETWCKVRKYDHYKKCYIGVLVNKARKTAIFFYENGSCGRDVLTDFLGDAELKSIMSDGYNAYVFIGNELKLGRFKDTVHQVCMSHAKNKFVKASNQGGEPTAERFSEILKEFFMRDREYDDAGLTPKERFQERQSLETKELLIELRSLLDSEQSKDSEFRSRYYKEALNYLNRFRKEIFAYLDDGELPIDNNLAERTIRKLTTQRNNSLHYGSDAGAEMAATYHSVIGTVKLLGSSIWNFIGTFFKNIFNGCRDYVNMVPDKITLATSQC,not soluble
18,VGDYGPFGFDPDEFDRVIREGSEGLRDAFERIGRFLSSSGAGTGWSAIFEDLSRRSRPAPETAGEAGDGVWAIYTVDADGGARVEQVYATELDALRANKDNTDPKRKVRFLPYGIAVSVLDDPVDEAQ,soluble
19,SLSRRKPNPVIVADIRQAEGALAEIATIDRKVGEIEAQMNEAIDAAKARASQKSAPLLARRKELEDGVATFATLNKTEMFKDRKSLDLGFGTIGFRLSTQIVQMSKITKDMTLERLRQFGISEGIRIKEDVNKEAMQGWPDERLEMVGLKRRTTDAFYIEINREEVADTAA,soluble
20,MHKDIKLVKETEIRKPIGSPFIVYFSSISNNTHRFIEKLGFQHKRIPVDITQSITVSNEYVLICPTYSGGGNQVEGAVPKQVIQFLNNKHNRELCRGVIASGNTNFGDTFCLAGTVISKKLNVPLLYQFELLGTKNDVEQTQKIIANFFQNSN,soluble
21,MKRDKEVSINKKDPFSVLIMGVDERDGDKGRADTLIYMTVNPKTNTTDMVSIPRDTYTKIIGKGTMDKINHSYAFGGTQMTVDTVENFLDVPVDYFVKVNMESFRDVVDTLGGITVNSTFAFSYDGYSFGKGEITLNGKEALAYTRMRKEDPRGDFGRQDRQRQVIQGIINKGANISSITKFGDMFKVVENNVKTNLTFDNMWDIQSDYKGARKHIKQHELKGTGTKINGIYYYQADESALSDITKELKESLEKLEHHHHHH,soluble
22,MGKVYKKVELVGTSEEGLEAAIQAALARARKTLRHLDFFEVKEIRGTIGEAGVKEYQVVLEVGFRLEET,soluble
23,GPGSMQEIIDTVNRYTLRSAAFRDKPTPGLAARQFLCSLLLHRKLDSIRLSSIARYMFSTEALIAVSRDGIQTISCEGNTLWPICTIPNGLTSEISGVAVTPEGTLVCSSNGICYLEGENLRVAEDCASSSYAQNVLCISCTPDGRYIATGGGTATVTVWTSDLKPLHHFAGHTDWVRFVKFARGRSPALQLFSTGDDGVICQWDVLAGSLISRVDYSLGESIQLFEVSYYSGLMAISSGTSLIALYCPQSDNTTRAVGEDVLRLQPMALITGAHEYTPTAGKFTDDSQWLASASEDETIALTYVLDPQTCFVCKKFVTRRRCFSFMNIFNSICILAAPPVSSVIVIAACSSDGTVVQWVVDPRTNRASYTKKLQLHLGSFLGMDLIPGDDLNHLL,not soluble
